Measurements reported in patent US20170298096A1 (CANIMGUIDE THERAPEUTICS, published 2017).
No end group written: not given here.

T1: His-tagged P3028 (human, not fully specified)
T1 construct: the tag is put first after 'PGE73=His-tag-P3028'; also called PGE73; not shown: His-tag
T1 peptide: {His‑tag}-VFDEFKPLVEEPQNLIK


Target: T1, His-tagged P3028
Experiment: chip ELISA

Row | ELISA signal | Binder
1 | 193 | KKLDTDFVKLSLFTER [P28R F6D]
2 | 291 | KKLDTFFVKLSLYTER [P28R F13Y]
3 | 547 | KKLDTVFVKLSLFTER [P28R F6V]
4 | 446 | KKLDTFFVKLSLVTER [P28R F13V]
5 | 348 | KKLDTFNVKLSLFTER [P28R F7N]
6 | 396 | EKLDTFFVKLSLFTER [P28R K1E]
7 | 446 | KKLDTFIVKLSLFTER [P28R F7I]
8 | 1190 | KKLDTFFVKLSLMTER [P28R F13M]
9 | 527 | KKLDTFVVKLSLFTER [P28R F7V]
10 | 334 | KKLDTFYVKLSLFTER [P28R F7Y]
11 | 364 | KKLDTYFVKLSLFTER [P28R F6Y]
12 | 380 | KKLDTFWVKLSLFTER [P28R F7W]
13 | 332 | FKLDTFFVKLSLFTER [P28R K1F]
14 | 517 | KKLDTFLVKLSLFTER [P28R F7L]
15 | 466 | AKLDTFFVKLSLFTER [P28R K1A]
16 | 511 | KKLDTFQVKLSLFTER [P28R F7Q]
17 | 467 | KKLDTMFVKLSLFTER [P28R F6M]
18 | 1140 | KKLDTFFVKLSLQTER [P28R F13Q]
19 | 410 | KKLDTQFVKLSLFTER [P28R F6Q]
20 | 517 | KKLDTFTVKLSLFTER [P28R F7T]
21 | 712 | KKLDTFMVKLSLFTER [P28R F7M]
22 | 635 | KKLDTFFVKLSLSTER [P28R F13S]
23 | 301 | KKLDTFDVKLSLFTER [P28R F7D]
24 | 468 | KKLDTFFVKLSLITER [P28R F13I]
25 | 332 | KKLDTHFVKLSLFTER [P28R F6H]
26 | 364 | KKLDTFHVKLSLFTER [P28R F7H]

Row | ELISA signal | Binder
27 | 494 | KKLDTFFVKLSLTTER [P28R F13T]
28 | 448 | KKLDTFFVKLSLLTER [P28R F13L]
29 | 373 | DKLDTFFVKLSLFTER [P28R K1D]
30 | 98 | KKLDTFFVKLSLETER [P28R F13E]
31 | 309 | KKLDTRFVKLSLFTER [P28R F6R]
32 | 112 | KKLDTFFVKLSLDTER [P28R F13D]
33 | 408 | KKLDTLFVKLSLFTER [P28R F6L]
34 | 229 | KKLDTEFVKLSLFTER [P28R F6E]
35 | 502 | KKLDTFFVKLSLRTER [P28R F13R]
36 | 369 | KKLDTFRVKLSLFTER [P28R F7R]
37 | 862 | KKLDTFFVKLSLNTER [P28R F13N]
38 | 432 | KKLDTSFVKLSLFTER [P28R F6S]
39 | 428 | HKLDTFFVKLSLFTER [P28R K1H]
40 | 426 | KKLDTFAVKLSLFTER [P28R F7A]
41 | 525 | KKLDTFFVKLSLATER [P28R F13A]
42 | 430 | KKLDTFFVKLSLWTER [P28R F13W]
43 | 381 | KKLDTFEVKLSLFTER [P28R F7E]
44 | 1050 | KKLDTFFVKLSLHTER [P28R F13H]
45 | 481 | KKLDTTFVKLSLFTER [P28R F6T]
46 | 466 | KKLDTIFVKLSLFTER [P28R F6I]
47 | 348 | KKLDTWFVKLSLFTER [P28R F6W]
48 | 446 | KKLDTNFVKLSLFTER [P28R F6N]
49 | 309 | KKLDTKFVKLSLFTER [P28R F6K]
50 | 700 | KKLDTFSVKLSLFTER [P28R F7S]
51 | 232 | KKLDTFKVKLSLFTER [P28R F7K]
52 | 220 | KKLDTFFVKLSLKTER [P28R F13K]
